Experimental data reported in patent US20190077875A1 (MorphoSys, published 2019).

Molecular target: T1, MOR202 (anti-CD38 antibody)
T1 construct: also called MOR03087
Assay: serum immunofixation electrophoresis (IFE) after pre-incubation of MOR202 (1200 µg/mL, saline or serum) with MOR09292-hAlb; anti-IgG or anti-lambda staining
Method: MOR202 at a constant concentration of 1200 μg/mL in saline (Lane 2-3) or serum (Lane 4-13) was pre-incubated with or without its idiotypic antibody MOR09292-hAlb at different ratios and the prepared samples were analyzed via IFE using anti-IgG staining (Lane 2-8) or anti-lambda staining (Lane 9-13). (Lane 2=MOR202; Lane 3=MOR202+MOR09292-hAlb at 2400 μg/mL; Lane 4=MOR202; Lane 5=MOR202+MOR09292-hAlb at 1200 μg/mL; Lane 6=MOR202+MOR09292-hAlb at 1800 μg/mL; Lane 7=MOR202+MOR09292-hAlb at 2400 μg/mL; Lane 8=MOR202+MOR09292-hAlb at 3600 μg/mL; Lane 9=MOR202; Lane 10=MOR202+MOR09292-hAlb at 1200 μg/mL; Lane 11=MOR202+MOR09292-hAlb at 1800 μg/mL; Lane 12=MOR202+MOR09292-hAlb at 2400 μg/mL; Lane 13=MOR202+MOR09292-hAlb at 3600 μg/mL; Lane 1=human serum from a healthy donor stained for total protein to evaluate general background signaling).
In order to differentiate between MOR202 related assay signals in IFE vs. endogenous M-protein spikes a method was tested pre-incubating a MOR202 containing sample with an MOR202 specific anti-idiotypic antibody (MOR09292). […] For evaluating if the migration distance is large enough to be detected samples containing MOR202 in saline were prepared and pre-incubated with or without MOR09292. […] Afterwards, the samples were analyzed and IFE gels were stained with anti-IgG or anti-lambda antisera. […]

T1 sequence (VH, as listed by the source, chain 1 of 2): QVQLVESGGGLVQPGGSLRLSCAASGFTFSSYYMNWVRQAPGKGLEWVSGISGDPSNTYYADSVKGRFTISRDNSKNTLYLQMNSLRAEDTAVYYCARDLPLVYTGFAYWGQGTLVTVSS
T1 sequence (VL, as listed by the source, chain 2 of 2): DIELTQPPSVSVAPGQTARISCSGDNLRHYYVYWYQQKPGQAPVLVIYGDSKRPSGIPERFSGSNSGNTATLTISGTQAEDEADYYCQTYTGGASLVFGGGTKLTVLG

binding result: binds
B1: MOR09292-human albumin fusion (MOR09292-Fab fragment genetically fused to human albumin) (Fab)
heavy: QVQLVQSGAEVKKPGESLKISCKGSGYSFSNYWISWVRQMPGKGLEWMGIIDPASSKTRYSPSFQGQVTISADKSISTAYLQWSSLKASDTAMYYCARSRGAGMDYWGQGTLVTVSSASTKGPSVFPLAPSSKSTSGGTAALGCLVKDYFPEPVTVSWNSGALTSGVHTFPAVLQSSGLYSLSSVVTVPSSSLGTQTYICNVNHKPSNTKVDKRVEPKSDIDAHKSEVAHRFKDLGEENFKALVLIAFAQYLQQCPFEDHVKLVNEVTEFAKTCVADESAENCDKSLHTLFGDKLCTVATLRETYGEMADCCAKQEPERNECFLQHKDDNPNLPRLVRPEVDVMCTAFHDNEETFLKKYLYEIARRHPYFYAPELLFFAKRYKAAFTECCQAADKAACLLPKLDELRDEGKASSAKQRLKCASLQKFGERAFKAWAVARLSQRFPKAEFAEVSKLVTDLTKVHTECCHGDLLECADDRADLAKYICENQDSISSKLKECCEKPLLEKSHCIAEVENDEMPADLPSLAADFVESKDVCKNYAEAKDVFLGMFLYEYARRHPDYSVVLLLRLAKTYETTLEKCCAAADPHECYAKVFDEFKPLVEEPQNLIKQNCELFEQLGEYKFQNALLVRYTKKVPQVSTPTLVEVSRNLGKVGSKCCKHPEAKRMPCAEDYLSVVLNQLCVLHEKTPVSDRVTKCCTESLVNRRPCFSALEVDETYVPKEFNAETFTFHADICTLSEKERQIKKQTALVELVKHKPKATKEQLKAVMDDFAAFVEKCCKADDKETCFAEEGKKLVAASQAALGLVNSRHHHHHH
light: DIVLTQPPSVSGAPGQRVTISCTGSSSNIGAGYDVHWYQQLPGTAPKLLIYADNNRPSGVPDRFSGSKSGTSASLAITGLQSEDEADYYCGSYDESSNSMVFGGGTKLTVLGQPKAAPSVTLFPPSSEELQANKATLVCLISDFYPGAVTVAWKADSSPVKAGVETTTPSKQSNNKYAASSYLSLTPEQWKSHRSYSCQVTHEGSTVEKTVAPTECS
notes: Anti-idiotypic Fab to MOR202, fused to human albumin; also called MOR09292-hAlb; MOR09292-huAlb
